Measured values from CN115466329A (GUANGDONG FAPON PHARMACEUTICAL CO LTD, dated 2022).

Tests used:
[1] = biological target: T1, 小鼠PD1 expressed on CHO cells (CHO-mousePD1) (mouse, UniProt Q02242 25-288); test: flow cytometry on CHO-mousePD1 cells
T1 construct: whole, on cells; also called CHO-mPD1
T1 sequence (looked up): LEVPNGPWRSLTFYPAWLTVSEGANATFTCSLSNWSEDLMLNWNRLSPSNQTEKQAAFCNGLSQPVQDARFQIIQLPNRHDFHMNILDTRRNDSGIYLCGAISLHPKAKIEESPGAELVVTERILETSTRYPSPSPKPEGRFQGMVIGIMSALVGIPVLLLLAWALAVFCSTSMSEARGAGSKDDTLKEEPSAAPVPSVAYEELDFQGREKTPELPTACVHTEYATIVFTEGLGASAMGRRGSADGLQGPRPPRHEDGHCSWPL

[2] = biological target: T2, CTLA-4 (ACRO) coated on the ELISA plate (UniProt P16410 37-162, limits assumed); test: ELISA, antigen coated at 1μg/ml
T2 sequence (looked up): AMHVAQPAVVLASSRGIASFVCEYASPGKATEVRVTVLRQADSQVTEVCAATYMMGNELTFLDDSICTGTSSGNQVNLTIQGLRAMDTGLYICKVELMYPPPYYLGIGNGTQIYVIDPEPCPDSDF

[3] = biological target: T3, ICOS (ACRO) coated on the ELISA plate (UniProt Q9Y6W8 21-140); test: ELISA, antigen coated at 1μg/ml
T3 sequence (looked up): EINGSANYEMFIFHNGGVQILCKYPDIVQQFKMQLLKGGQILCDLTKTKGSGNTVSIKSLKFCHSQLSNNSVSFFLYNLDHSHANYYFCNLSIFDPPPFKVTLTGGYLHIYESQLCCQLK

[4] = biological target: CD28 (ACRO) coated on the ELISA plate (UniProt P10747 19-152); test: ELISA, antigen coated at 1μg/ml
PD-1-his(ACRO)重组蛋白 = biological target: T4, PD-1-his(ACRO)重组蛋白 (UniProt Q15116 25-167); test: BLI (ForteBio Octet QKe), PD-1-his loaded on HIS1K sensor, antibody in solution
T4 construct: Bought (ACRO); not shown: his tag
T4 sequence (Q15116 25-167 limits assumed): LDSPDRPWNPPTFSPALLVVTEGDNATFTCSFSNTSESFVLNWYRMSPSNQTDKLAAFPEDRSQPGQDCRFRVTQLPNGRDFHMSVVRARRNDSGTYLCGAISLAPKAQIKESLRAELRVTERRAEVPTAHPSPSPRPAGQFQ

Chain of CD28 (ACRO) coated on the ELISA plate (P10747 19-152 limits assumed): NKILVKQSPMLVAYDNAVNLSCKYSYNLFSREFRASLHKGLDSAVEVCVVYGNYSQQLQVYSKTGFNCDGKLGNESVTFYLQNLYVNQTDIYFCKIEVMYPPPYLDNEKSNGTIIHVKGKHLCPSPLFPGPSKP

binding result [1]: no binding (tested: 初始浓度为10μg/ml)
binding result [2]: no binding (tested: 10μg/ml)
binding result [3]: no binding (tested: 10μg/ml)
binding result [4]: no binding (tested: 10μg/ml)
Kd (PD-1-his(ACRO)重组蛋白): < 1 pM
koff (PD-1-his(ACRO)重组蛋白): < 1e-07 s⁻¹
kon (PD-1-his(ACRO)重组蛋白): 771000 M⁻¹ s⁻¹
B1: 抗PD-1鼠单抗PD-1-76-C2 (antibody, V domains shown)
VH: QIQLVQSGPELKKPGETVKISCKASGYTFTNYGMNWVKQAPGKGLKWMGWINTHTGEPTYADDFKGRFAFSLETSASTAYLQIKNLKNEDVATYFCTKEGEGIGFAYWGQGTLVTVSA
VL: DVLMTQTPLSLPVSLGDQASISCRSSQSIVYSNGKTYLEWYLQKPGQSPKLLIYKVSNRFSGVPDRFSGSGSGTDFTLKISRVEAEDLGVYYCFQGSHVPNTFGGGTKLEIKR
notes: Mouse monoclonal antibody from a hybridoma; an mIgG1 isotype control was used; also called PD-76-C2; 抗人PD-1鼠单抗
